Measured values as given in IntAct's records for PubMed 29039417.

B1: Protein PTHB1 (Homo sapiens), Q3SYG4 (parent)
chain: MSLFKARDWWSTILGDKEEFDQGCLCLANVDNSGNGQDKIIVGSFMGYLRIFSPHPAKTGDGAQAEDLLLEVDLRDPVLQVEVGKFVSGTEMLHLAVLHSRKLCVYSVSGTLGNVEHGNQCQMKLMYEHNLQRTACNMTYGSFGGVKGRDLICIQSMDGMLMVFEQESYAFGRFLPGFLLPGPLAYSSRTDSFLTVSSCQQVESYKYQVLAFATDADKRQETEQQKLGSGKRLVVDWTLNIGEQALDICIVSFNQSASSVFVLGERNFFCLKDNGQIRFMKKLDWSPSCFLPYCSVSEGTINTLIGNHNNMLHIYQDVTLKWATQLPHIPVAVRVGCLHDLKGVIVTLSDDGHLQCSYLGTDPSLFQAPNVQSRELNYDELDVEMKELQKIIKDVNKSQGVWPMTEREDDLNVSVVVSPNFDSVSQATDVEVGTDLVPSVTVKVTLQNRVILQKAKLSVYVQPPLELTCDQFTFEFMTPDLTRTVSFSVYLKRSYTPSELEGNAVVSYSRPTDRNPDGIPRVIQCKFRLPLKLICLPGQPSKTASHKITIDTNKSPVSLLSLFPGFASQSDDDQVNVMGFHFLGGARITVLASKTSQRYRIQSEQFEDLWLITNELILRLQEYFEKQGVKDFACSFSGSIPLQEYFELIDHHFELRINGEKLEELLSERAVQFRAIQRRLLARFKDKTPAPLQHLDTLLDGTYKQVIALADAVEENQGNLFQSFTRLKSATHLVILLIALWQKLSADQVAILEAAFLPLQEDTQELGWEETVDAAISHLLKTCLSKSSKEQALNLNSQLNIPKDTSQLKKHITLLCDRLSKGGRLCLSTDAAAPQTMVMPGGCTTIPESDLEERSVEQDSTELFTNHRHLTAETPRPEVSPLQGVSE
partner: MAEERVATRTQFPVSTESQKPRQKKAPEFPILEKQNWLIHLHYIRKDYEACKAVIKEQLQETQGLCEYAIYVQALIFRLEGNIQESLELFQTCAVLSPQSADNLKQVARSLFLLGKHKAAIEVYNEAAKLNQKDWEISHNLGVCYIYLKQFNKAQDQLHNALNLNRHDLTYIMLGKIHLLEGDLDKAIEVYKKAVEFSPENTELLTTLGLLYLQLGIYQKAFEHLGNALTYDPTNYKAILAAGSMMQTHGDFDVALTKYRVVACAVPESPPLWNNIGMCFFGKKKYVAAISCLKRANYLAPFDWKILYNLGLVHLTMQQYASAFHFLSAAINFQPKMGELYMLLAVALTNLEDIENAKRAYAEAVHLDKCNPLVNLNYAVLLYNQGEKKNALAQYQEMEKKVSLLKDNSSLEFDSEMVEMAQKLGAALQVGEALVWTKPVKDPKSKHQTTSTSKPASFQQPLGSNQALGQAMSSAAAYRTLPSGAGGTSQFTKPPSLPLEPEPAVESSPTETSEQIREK

Variants of: B1
Settings: with bbs4_human BBS4, Q96RK4

| Variant | effect of a mutation on the interaction |
| --- | --- |
| P479K | with no effect |
| T829A | with no effect |
| Q627A | with no effect |
| I801K | with no effect |
| I801E | with no effect |
| A633K | with no effect |
| L695A | with no effect |
| D409A | with no effect |
| N576A | with no effect |
| F632K | with no effect |
| A792K | with no effect |
| L583K | with no effect |
| L583E | with no effect |
| I846K | with no effect |
| A750K | with no effect |
| A750E | with no effect |
| I751K | with no effect |
| E604A | with no effect |
| E604K | with no effect |
| L780A | with no effect |
| N716E | with no effect |
| F421E | with no effect |
| H869A | with no effect |

| Variant | effect of a mutation on the interaction |
| --- | --- |
| P564A | with no effect |
| L825K | with no effect |
| L720E | with no effect |
| N796A | with no effect |
| E852K | with no effect |
| S820E | with no effect |
| Q705A | with no effect |
| G822A | with no effect |
| N412E | with no effect |
| L648K | with no effect |
| Q597E | with no effect |
| S880E | with no effect |
| Q693A | disrupting interaction strength |
| A833K | with no effect |
| K743A | with no effect |
| L851A | with no effect |
| L851K | with no effect |
| L559E | with no effect |
| D650K | with no effect |
| Y490A | with no effect |
| E607K | with no effect |
| G502E | with no effect |
| L692E | with no effect |

| Variant | effect of a mutation on the interaction |
| --- | --- |
| S639A | with no effect |
| R600E | with no effect |
| M477A | with no effect |
| T428A | with no effect |
| G433A | with no effect |
| F476E | with no effect |
| L681K | with no effect |
| Q798E | with no effect |
| M839A | disrupting interaction strength |
| M839K | with no effect |
| M839E | disrupting interaction strength |
| V713A | with no effect |
| G823K | with no effect |
| A739K | disrupting interaction strength |
| Q621K | with no effect |
| Q447E | with no effect |
| S568E | with no effect |
| V424A | with no effect |
| V424K | with no effect |
| A455E | with no effect |
| K789E | with no effect |
| T613I | disrupting interaction strength |
| I776K | with no effect |

| Variant | effect of a mutation on the interaction |
| --- | --- |
| L744A | with no effect |
| P419E | with no effect |
| T845E | with no effect |
| C843K | with no effect |
| N553E | with no effect |
| N866K | with no effect |
| N794A | with no effect |
| D551E | with no effect |
| R876E | with no effect |
| R679A | with no effect |
| D572E | with no effect |
| W610A | with no effect |
| W610K | with no effect |
| D804K | with no effect |
| R521K | with no effect |
| T763E | with no effect |
| L736A | with no effect |
| D696A | with no effect |
| E790A | with no effect |
| H732E | with no effect |
| H732A | with no effect |
| L457A | with no effect |
| H694K | with no effect |

| Variant | effect of a mutation on the interaction |
| --- | --- |
| N420K | with no effect |
| F563A | with no effect |
| C634K | with no effect |
| V734E | with no effect |
| E753A | with no effect |
| A872E | with no effect |
| K443E | with no effect |
| I601A | with no effect |
| V590E | with no effect |
| R514A | with no effect |
| D762E | with no effect |
| S507A | with no effect |
| L411K | with no effect |
| Q742E | with no effect |
| M837A | with no effect |
| M837K | with no effect |
| M837I | disrupting interaction strength |
| M837E | with no effect |
| E406K | with no effect |
| E408A | with no effect |
| V671I | disrupting interaction strength |
| P881K | with no effect |
| I612K | with no effect |

| Variant | effect of a mutation on the interaction |
| --- | --- |
| I612E | with no effect |
| L799E | with no effect |
| Q471E | with no effect |
| C525K | with no effect |
| L500A | with no effect |
| F724E | disrupting interaction strength |
| E668A | with no effect |
| G767A | with no effect |
| D422A | with no effect |
| T549A | with no effect |
| H651K | with no effect |
| V506K | with no effect |
| Y703E | with no effect |
| L618A | with no effect |
| I548A | with no effect |
| I548K | with no effect |
| S418A | with no effect |
| I550A | with no effect |
| I550K | with no effect |
| V459K | with no effect |
| E715A | with no effect |
| L814K | with no effect |
| R824K | with no effect |

| Variant | effect of a mutation on the interaction |
| --- | --- |
| T688E | with no effect |
| R587K | with no effect |
| R854E | with no effect |
| P877K | with no effect |
| P511A | with no effect |
| P511K | with no effect |
| P802K | with no effect |
| Q605A | with no effect |
| K547A | with no effect |
| S488E | with no effect |
| P497E | with no effect |
| P497K | with no effect |
| S635E | with no effect |
| S777A | with no effect |
| S777E | disrupting interaction strength |
| R510K | with no effect |
| E475A | with no effect |
| L795E | with no effect |
| G565A | with no effect |
| L560E | with no effect |
| P537E | with no effect |
| T543K | with no effect |
| R683A | with no effect |

| Variant | effect of a mutation on the interaction |
| --- | --- |
| Q883A | with no effect |
| I812A | with no effect |
| V485K | with no effect |
| V461K | with no effect |
| T871E | with no effect |
| R656K | with no effect |
| L870K | with no effect |
| Q677Y | disrupting interaction strength |
| Q858E | with no effect |
| H652K | with no effect |
| E769K | with no effect |
| F673A | with no effect |
| F673E | with no effect |
| L611F | disrupting interaction strength |
| L611K | with no effect |
| S509P | disrupting interaction strength |
| S509E | with no effect |
| S509K | with no effect |
| E857K | with no effect |
| N515K | with no effect |
| P438A | with no effect |
